For the assay, the target named is Fat (Ft), full-length (pAct-ft) (Drosophila) (UniProt P33450). Briefly: cell aggregation assay; S2 cells transfected with ft mixed with S2 cells transfected with ds (one set cotransfected with pMK33B fj forms, with or without CuSO4 for 16 hr); rotated 100 rpm 2 hr, immunolabelled; percent of ft-expressing cells binding to ds-expressing cells counted.
Sequence of UniProt P33450 (P33450 36-5147): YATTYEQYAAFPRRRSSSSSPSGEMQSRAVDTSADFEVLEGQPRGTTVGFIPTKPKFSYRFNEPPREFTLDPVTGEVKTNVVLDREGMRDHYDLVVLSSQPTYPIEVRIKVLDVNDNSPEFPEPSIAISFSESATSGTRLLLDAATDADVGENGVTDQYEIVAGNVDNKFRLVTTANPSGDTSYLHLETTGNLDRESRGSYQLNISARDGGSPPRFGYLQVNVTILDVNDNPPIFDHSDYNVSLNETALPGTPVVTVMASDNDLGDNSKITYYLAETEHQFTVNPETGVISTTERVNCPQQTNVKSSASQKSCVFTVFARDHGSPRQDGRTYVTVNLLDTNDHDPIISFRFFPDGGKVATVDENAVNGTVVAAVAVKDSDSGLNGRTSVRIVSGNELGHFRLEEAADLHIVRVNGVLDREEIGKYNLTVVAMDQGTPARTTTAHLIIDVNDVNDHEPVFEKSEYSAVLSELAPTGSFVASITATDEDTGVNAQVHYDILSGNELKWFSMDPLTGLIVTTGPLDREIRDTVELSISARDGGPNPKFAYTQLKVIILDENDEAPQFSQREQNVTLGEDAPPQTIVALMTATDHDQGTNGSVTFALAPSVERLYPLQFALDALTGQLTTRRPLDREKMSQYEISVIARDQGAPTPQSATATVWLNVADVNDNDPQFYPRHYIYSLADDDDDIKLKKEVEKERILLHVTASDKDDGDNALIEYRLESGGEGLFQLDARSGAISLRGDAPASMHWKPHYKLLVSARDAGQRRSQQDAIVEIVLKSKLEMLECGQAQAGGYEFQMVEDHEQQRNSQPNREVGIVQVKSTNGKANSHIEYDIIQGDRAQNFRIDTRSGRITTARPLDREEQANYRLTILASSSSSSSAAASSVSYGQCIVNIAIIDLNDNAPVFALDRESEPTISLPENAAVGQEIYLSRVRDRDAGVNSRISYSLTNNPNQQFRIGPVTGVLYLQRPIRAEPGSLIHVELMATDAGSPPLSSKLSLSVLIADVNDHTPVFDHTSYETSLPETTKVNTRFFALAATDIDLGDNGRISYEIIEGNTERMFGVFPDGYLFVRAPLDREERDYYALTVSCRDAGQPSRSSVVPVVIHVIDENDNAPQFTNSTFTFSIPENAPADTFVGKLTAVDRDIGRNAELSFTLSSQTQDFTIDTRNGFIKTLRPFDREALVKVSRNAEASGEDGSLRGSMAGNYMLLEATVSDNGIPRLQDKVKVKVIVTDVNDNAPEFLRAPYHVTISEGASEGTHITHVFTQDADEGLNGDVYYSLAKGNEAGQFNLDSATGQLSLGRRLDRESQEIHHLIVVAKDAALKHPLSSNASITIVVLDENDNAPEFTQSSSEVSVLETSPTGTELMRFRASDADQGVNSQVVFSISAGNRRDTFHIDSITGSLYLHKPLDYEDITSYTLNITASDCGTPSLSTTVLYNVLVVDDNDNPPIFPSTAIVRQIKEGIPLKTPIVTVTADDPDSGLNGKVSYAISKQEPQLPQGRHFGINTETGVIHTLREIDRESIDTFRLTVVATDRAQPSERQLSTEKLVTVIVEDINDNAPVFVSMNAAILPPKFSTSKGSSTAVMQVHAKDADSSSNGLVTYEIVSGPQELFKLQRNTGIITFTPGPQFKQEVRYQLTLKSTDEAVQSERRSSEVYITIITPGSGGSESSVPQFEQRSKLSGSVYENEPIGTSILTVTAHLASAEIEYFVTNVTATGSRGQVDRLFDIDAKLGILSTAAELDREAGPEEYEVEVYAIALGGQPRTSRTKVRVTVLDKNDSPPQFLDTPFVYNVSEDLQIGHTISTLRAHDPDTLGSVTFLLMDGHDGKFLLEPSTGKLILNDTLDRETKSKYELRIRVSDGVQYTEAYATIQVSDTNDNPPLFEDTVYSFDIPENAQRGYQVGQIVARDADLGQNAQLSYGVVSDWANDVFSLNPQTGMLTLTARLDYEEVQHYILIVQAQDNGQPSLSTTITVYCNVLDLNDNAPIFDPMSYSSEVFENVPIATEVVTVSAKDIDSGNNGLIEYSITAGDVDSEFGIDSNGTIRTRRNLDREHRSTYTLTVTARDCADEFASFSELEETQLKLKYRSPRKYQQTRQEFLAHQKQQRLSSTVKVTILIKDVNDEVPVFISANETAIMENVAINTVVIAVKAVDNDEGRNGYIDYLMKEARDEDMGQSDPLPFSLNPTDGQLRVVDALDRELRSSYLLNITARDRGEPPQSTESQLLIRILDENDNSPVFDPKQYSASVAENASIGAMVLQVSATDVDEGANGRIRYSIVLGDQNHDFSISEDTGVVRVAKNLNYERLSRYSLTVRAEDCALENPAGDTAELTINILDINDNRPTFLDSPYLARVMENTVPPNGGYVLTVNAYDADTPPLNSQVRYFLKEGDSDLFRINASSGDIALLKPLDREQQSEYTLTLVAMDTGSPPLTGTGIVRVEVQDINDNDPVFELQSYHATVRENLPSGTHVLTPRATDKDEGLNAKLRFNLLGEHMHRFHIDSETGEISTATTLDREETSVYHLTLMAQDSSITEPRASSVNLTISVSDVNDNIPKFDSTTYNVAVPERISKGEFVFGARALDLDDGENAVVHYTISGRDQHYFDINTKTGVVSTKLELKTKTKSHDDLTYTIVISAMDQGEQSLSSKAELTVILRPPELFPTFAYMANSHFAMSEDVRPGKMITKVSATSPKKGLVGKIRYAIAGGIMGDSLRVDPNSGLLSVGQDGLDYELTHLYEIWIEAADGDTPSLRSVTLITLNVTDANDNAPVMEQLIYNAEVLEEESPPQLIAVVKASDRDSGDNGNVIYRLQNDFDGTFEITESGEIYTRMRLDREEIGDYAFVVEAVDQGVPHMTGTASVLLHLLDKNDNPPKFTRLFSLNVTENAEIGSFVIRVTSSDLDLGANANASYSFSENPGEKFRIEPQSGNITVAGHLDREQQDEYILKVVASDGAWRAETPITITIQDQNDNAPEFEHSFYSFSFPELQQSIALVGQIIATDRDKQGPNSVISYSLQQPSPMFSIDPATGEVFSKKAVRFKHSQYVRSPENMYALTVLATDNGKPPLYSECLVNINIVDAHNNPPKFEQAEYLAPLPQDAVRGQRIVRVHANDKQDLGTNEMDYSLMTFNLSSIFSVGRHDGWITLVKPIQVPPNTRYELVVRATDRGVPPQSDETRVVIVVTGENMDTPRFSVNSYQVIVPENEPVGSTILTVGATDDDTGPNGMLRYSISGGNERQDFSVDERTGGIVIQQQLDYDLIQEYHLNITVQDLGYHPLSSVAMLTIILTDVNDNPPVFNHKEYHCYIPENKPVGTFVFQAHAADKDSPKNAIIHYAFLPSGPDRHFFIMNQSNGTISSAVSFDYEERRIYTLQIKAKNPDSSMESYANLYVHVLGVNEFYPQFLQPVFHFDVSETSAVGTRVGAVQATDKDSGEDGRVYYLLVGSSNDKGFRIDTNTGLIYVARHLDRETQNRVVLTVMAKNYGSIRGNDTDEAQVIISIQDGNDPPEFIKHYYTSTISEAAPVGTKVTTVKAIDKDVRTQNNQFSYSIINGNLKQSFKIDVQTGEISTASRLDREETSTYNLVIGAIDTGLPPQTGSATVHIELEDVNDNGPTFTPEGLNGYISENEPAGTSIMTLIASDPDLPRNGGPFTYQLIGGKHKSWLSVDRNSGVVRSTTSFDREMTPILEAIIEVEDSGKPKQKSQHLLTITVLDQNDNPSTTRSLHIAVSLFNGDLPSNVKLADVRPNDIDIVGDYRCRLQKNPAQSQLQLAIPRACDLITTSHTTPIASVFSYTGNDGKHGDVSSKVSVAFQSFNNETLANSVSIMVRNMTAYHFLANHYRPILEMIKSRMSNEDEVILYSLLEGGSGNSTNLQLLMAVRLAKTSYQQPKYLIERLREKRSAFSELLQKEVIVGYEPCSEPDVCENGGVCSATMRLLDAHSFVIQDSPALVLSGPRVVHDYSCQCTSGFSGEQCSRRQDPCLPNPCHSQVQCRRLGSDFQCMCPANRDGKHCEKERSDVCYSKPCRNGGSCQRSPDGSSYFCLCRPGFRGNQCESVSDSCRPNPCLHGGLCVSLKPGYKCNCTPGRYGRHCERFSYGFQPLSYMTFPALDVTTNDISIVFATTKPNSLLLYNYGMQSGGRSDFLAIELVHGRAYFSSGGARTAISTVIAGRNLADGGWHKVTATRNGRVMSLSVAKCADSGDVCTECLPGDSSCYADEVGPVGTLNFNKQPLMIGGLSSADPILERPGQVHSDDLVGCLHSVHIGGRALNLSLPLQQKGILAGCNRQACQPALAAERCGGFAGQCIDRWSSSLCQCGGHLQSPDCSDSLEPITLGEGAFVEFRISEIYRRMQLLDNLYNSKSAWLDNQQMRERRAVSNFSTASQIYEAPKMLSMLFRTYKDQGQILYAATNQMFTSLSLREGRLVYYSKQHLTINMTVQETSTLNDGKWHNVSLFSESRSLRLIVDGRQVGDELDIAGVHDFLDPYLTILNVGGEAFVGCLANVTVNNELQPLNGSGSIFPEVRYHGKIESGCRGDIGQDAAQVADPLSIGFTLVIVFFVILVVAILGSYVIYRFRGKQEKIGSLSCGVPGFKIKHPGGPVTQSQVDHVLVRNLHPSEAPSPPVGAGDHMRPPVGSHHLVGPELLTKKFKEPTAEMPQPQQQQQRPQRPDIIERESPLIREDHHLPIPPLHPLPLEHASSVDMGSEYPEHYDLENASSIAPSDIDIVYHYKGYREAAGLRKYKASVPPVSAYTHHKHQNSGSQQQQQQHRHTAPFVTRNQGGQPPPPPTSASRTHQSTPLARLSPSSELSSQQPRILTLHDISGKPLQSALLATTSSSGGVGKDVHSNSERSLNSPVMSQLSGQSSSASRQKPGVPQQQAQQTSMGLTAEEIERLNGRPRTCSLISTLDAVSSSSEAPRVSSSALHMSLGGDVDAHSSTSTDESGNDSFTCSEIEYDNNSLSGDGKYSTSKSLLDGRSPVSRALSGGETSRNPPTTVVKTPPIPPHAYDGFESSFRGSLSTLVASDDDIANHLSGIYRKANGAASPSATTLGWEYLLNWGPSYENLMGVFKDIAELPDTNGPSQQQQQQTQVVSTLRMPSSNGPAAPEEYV

In turn, “Dachsous (Ds), untagged form, coexpressed with Fj or GNT-Fj (phosphorylated by Fj) (receptor)” returned a reduction of binding against the same cells without Fj induction of 40%.

Source of the values: paper PMC2958304.
